One protein from paper PMC3722153, “Refolding of a Thermostable Glyceraldehyde Dehydrogenase for Application in Synthetic Cascade Biomanufacturing” (PLoS ONE, 2013) can be followed below.

Data set [1] deals with the molecule itself. The data set is described as follows: SEC; Superdex 200 gel filtration, calibrated with molecular mass standards; 50 mg lyophilized TaAlDH dissolved in 10 mL 20 mM TRIS pH 8; soluble and refolded preparations. (Size exclusion chromatography separates by hydrodynamic size, large species first.)
Substrate in data set [2]: NC(=O)c1ccc[n+]([C@@H]2O[C@H](COP(=O)(O)OP(=O)(O)OC[C@H]3O[C@@H](n4cnc5c(N)ncnc54)[C@H](O)[C@@H]3O)[C@@H](O)[C@H]2O)c1
Kind of data set: purified protein. The class given is biochemical, Thermoplasma acidophilum. The settings on record: 5 mM D-glyceraldehyde, 0-75 mM NAD+, 100 mM HEPES pH 6.2, 50°C, refolded enzyme 0.02 mg/mL, apparent, varied: cofactor. The source says:
(§1) (glyceraldehyde dehydrogenase, aldehyde dehydrogenase from Thermoplasma acidophilum)

Substrate in data set [3]: NC(=O)c1ccc[n+]([C@@H]2O[C@H](COP(=O)(O)OP(=O)(O)OC[C@H]3O[C@@H](n4cnc5c(N)ncnc54)[C@H](OP(=O)(O)O)[C@@H]3O)[C@@H](O)[C@H]2O)c1
The data set is described as follows: purified protein. Format: biochemical, Thermoplasma acidophilum. The settings on record: 5 mM D-glyceraldehyde, 0-0.24 mM NADP+, 100 mM HEPES pH 6.2, 50°C, refolded enzyme 0.02 mg/mL, apparent, varied: cofactor.
Description: as §1

B1: glyceraldehyde dehydrogenase (aldehyde dehydrogenase) from Thermoplasma acidophilum (enzyme, UniProt Q9HK01 1-493, looked up)
chain: MDTKLYIDGQWVNSSSGKTVDKYSPVTGQVIGRFEAATRDDVDRAIDAAEDAFWAWNDLGSVERSKIIYRAKELIEKNRAELENIIMEENGKPVKEAKEEVDGVIDQIQYYAEWARKLNGEVVEGTSSHRKIFQYKVPYGIVVALTPWNFPAGMVARKLAPALLTGNTVVLKPSSDTPGSAEWIVRKFVEAGVPKGVLNFITGRGSEIGDYIVEHKKVNLITMTGSTATGQRIMQKASANMAKLILELGGKAPFMVWKDADMDNALKTLLWAKYWNAGQSCIAAERLYVHEDIYDTFMSRFVELSRKLALGDPKNADMGPLINKGALQATSEIVEEAKESGAKILFGGSQPSLSGPYRNGYFFLPTIIGNADQKSKIFQEEIFAPVIGARKISSVEEMYDLANDSKYGLASYLFTKDPNIIFEASERIRFGELYVNMPGPEASQGYHTGFRMTGQAGEGSKYGISEYLKLKNIYVDYSGKPLHINTVRDDLFQ
notes: glyceraldehyde dehydrogenase (TaAlDH) of Thermoplasma acidophilum; calculated mass 56 kDa (56.4 kDa); they are written as one molecule; also called TaAlDH; AlDH; source: E. coli BL21 (DE3)
For the protein B1, the “stoichiometry N” value in data set [1] stood at 2. For the same protein, the Km in the data set “purified protein [2]” stood at 22.13 ± 1.43 mM; in the data set “purified protein [3]”, 0.022 ± 0.001 mM. Moreover, the figures for the Vmax in the data set “purified protein [2]” and in “purified protein [3]” were 1.86 µmol/min/mg and 0.849 µmol/min/mg, respectively.

For orientation: stoichiometry N means a count of units in the complex or per binding partner. As usually defined, the Km is the concentration of substrate that gives half-maximal velocity. For orientation: Vmax means the top rate of the reaction or transport when substrate is in excess.
